Assay results from article PMC9160049, “Cryo-EM structures of Gid12-bound GID E3 reveal steric blockade as a mechanism inhibiting substrate ubiquitylation” (Nature Communications, 2022).

Columns and labels:
[1] = target: Chelator-GID^SR4 (Gid7-Gid4-Gid5-Gid1-Gid8-Gid2-Gid9), Twin-Strep at the C-terminus of Gid8 (S. cerevisiae) (UniProt P53076); experiment: cryo-EM structure; Cage-GID^SR4 prepared without Gid12, co-expressed in Hi5 cells and purified; 19.8 Å map fitted with three Chelator-GID^SR4 models
[2] = target: Gid12-Chelator-GID^SR4 (Gid12-Gid7-Gid4-Gid5-Gid1-Gid8-Gid2-Gid9), Twin-Strep at the C-terminus of Gid8 (S. cerevisiae) (UniProt Q12027); experiment: cryo-EM structure; maps of Gid12-GID^SR4 (9.8 Å), Gid12-Chelator-GID^SR4 (19.4 Å) and Gid12-Cage-GID^SR4 (20.6 Å), complexes co-expressed in Hi5 cells and purified; docked with Gid12-SRS and prior structures
[3] = target: PHSVTP-Fbp1 (Fbp1 with its N-terminus exchanged to Mdh2 degron) (S. cerevisiae) (UniProt P09201); experiment: cryo-EM structure; purified Cage-GID^SR4 at 1 mg/ml with fivefold molar excess of purified PHSVTP-Fbp1 added directly before grid preparation; 12.2 Å; 25 mM HEPES pH 7.5, 50 mM NaCl, 5 mM DTT
[4] = target: the molecule itself; experiment: cryo-EM structure; purified Chelator-GID^SR4 at 0.6 mg/ml with threefold molar excess of purified Mdh2-6×His added directly before grid preparation; 18.9 Å; 25 mM HEPES pH 7.5, 150 mM NaCl, 5 mM DTT
[5] = target: T1, 3×HA-Gid4 (endogenously N-terminally HA-tagged Gid4) (S. cerevisiae (endogenous in BY4741), UniProt P38263 1-362); experiment: affinity purification with mass spectrometry; 3×HA-Gid4 on anti-HA resin, eluted with HA peptide, from BY4741 GID12-9×cMYC lysate; glycolytic conditions, ethanol starvation for 16 h or carbon recovery; iBAQ quantification; conditions: partners not purified
T1 construct: Gid4 (Vid24), S. cerevisiae, tagged at the endogenous locus; source: endogenous locus, BY4741 GID12-9×cMYC::kanMX4, 3×HA-GID4 yeast, in lysate; not shown: 3×HA, N-terminal, kept
T1 sequence (looked up): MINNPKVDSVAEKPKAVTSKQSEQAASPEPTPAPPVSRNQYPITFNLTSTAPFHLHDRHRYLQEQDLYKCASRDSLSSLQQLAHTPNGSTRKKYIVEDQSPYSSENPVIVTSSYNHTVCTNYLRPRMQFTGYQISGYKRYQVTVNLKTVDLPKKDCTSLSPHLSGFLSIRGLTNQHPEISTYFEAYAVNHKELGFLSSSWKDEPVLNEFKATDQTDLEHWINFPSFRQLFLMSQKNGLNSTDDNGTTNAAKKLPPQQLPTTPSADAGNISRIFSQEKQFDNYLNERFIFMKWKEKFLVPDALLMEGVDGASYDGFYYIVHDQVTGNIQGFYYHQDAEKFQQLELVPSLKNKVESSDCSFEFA

“Chelator-GID^SR4 (Gid7-Gid4-Gid5-Gid1-Gid8-Gid2-Gid9), Twin-Strep at the C-terminus of Gid8, P53076 1-958; Q12508 1-421; P38263 1-362; P40547 1-921; P25569 1-745; P40208 1-455; P40492 1-516” showed a stoichiometry N [1] of 3.

In the case of “Gid12-Chelator-GID^SR4 (Gid12-Gid7-Gid4-Gid5-Gid1-Gid8-Gid2-Gid9), Twin-Strep at the C-terminus of Gid8, Q12027 1-708; P53076 1-958; Q12508 1-421; P38263 1-362; P40547 1-921; P25569 1-745; P40208 1-455; P40492 1-516”, the stoichiometry N [2] is reported as 3.

In the case of “PHSVTP-Fbp1 (Fbp1 with its N-terminus exchanged to Mdh2 degron) (from UniProt P09201 1-348) (enzyme)”, the stoichiometry N [3] is reported as 4.

B1: Mdh2-6×His (enzyme, S. cerevisiae, UniProt P22133 2-377, looked up)
chain: PHSVTPSIEQDSLKIAILGAAGGIGQSLSLLLKAQLQYQLKESNRSVTHIHLALYDVNQEAINGVTADLSHIDTPISVSSHSPAGGIENCLHNASIVVIPAGVPRKPGMTRDDLFNVNAGIISQLGDSIAECCDLSKVFVLVISNPVNSLVPVMVSNILKNHPQSRNSGIERRIMGVTKLDIVRASTFLREINIESGLTPRVNSMPDVPVIGGHSGETIIPLFSQSNFLSRLNEDQLKYLIHRVQYGGDEVVKAKNGKGSATLSMAHAGYKCVVQFVSLLLGNIEQIHGTYYVPLKDANNFPIAPGADQLLPLVDGADYFAIPLTITTKGVSYVDYDIVNRMNDMERNQMLPICVSQLKKNIDKGLEFVASRSASS
notes: Mdh2 (malate dehydrogenase), S. cerevisiae; The name is written Mdh2-6×His; also called malate dehydrogenase; source: purified
In the case of B1, the “stoichiometry N” value [4] is reported as 2.

B2: Gid12-9×cMYC (natural protein, S. cerevisiae (endogenous in BY4741), UniProt Q12027 1-708, looked up)
chain: MATGRIQFAVSTPCNTKGKPSGYRLFEFKNDRLALVPSERGCTKVDVNANIQAFCYLRPNGRDTSISPDATHILDSCDYMVLAKSNGFIEIISNYQYKIKNGLRLAPSYILRCTPEDFESNFFSDYMIAGLEYSQGLLYCCMCSGRIYVFVMNLPTDYIQYKNMYNPMFPDCFFKVHHDNNTTHSSEEEKLFEGSTRYTGRSCSKHICYFLLPIEPSHLRSSPVVSSFCNMYQGLPIYRPSMYLHIERGISTFHINPLDRFCFMTVSPRSPLFIRKIILPLTYVTFLSTFISLKNSIQGDTCGEILSWDNVAQQNGFGSLFSWISNKFTFDTDIINSTIWDDIVKYSGTGMLDSGIVWKQRQGHAKDDIYELFHTQDMLGSSRRNSSFSTASSEPRPLSRRRRESFQALTRDAFRERMDVPCSTKWELDSFIRGLRRNTFMVDFEIVEKISHRNGNDGVNEDDNTTDESDETMTSFLTDNYKKMDIVCIDHFVTLSAFRPRYYDEPIIKIDSLSNKNGSENGTNEEEWAESQMKVDGQVIDDETAQFKQALGNLCSFKKLFMLDDSLCFILDTHGVLLINRFEIKNTKNLLRNSKDTIRIIPHDFGLINDTIVIINDIDVGTDNVCALTFHLVVTSMAGEITVLKGEFFKNCRLGRIKLCDSLKLNRKDRFVDKLALIDYDGLNAQKRRLDYDEKDLYTFIVKKVKRD
notes: Gid12 (Ipf1, YDL176W), S. cerevisiae, tagged at the endogenous locus; The strain name is written GID12-9×cMYC; source: endogenous locus, BY4741 GID12-9×cMYC::kanMX4, 3×HA-GID4 yeast, in lysate
In the case of B2, the “ratio of Gid12 to Gid4 in the Gid4 immunoprecipitate (iBAQ), glycolytic growth conditions” value [5] is reported as ~0.2 Gid12:Gid4 and the “stoichiometry of Gid12 to Gid4 in the Gid4 immunoprecipitate (iBAQ), gluconeogenic growth conditions” value [5] is reported as ~1 Gid12:Gid4.
